Reference: patent US20030114379A1

Target: CCR1 (human) (UniProt P32246)
Experiment: cell-based or functional assay

Chain of CCR1 (human) (P32246 whole entry): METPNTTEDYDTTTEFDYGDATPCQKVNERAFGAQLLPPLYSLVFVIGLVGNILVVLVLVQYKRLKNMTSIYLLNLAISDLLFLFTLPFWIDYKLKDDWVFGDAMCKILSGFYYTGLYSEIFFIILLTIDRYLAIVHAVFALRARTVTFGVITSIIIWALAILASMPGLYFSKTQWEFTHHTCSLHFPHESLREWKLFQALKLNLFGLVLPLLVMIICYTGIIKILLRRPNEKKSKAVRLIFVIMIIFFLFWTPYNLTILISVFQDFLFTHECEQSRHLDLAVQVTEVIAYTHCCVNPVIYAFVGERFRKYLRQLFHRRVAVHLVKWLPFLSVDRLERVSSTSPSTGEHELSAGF

In the case of “MPIF-1 wild type (mature MPIF-1 secreted from a baculovirus expression system) (from UniProt P55773 22-120) (ligand)”, the Ca2+ mobilization (ng/mL): minimum concentration required to mobilize calcium in human monocytes and/or THP-1 cells; MPIF-1/HG00300-B5 was 1000 ng/mL.
